This is an account of results in patent US20040033229A1.

Assay [1] deals with prostate specific membrane antigen (PSMA), full-length, on the cell surface (human) (UniProt Q04609). As to the kind of experiment: fraction of radiolabel bound to cells, average.
Assay [2] has the same target. As to the kind of experiment: fraction of radiolabel bound to cells, PSMA-3T3.
For assay [3] the target is unchanged. As to the kind of experiment: cell-based or functional assay.

“And” between values parts separate entries of the source, which are not always exact repeats. Equal entries are not always repeated.

Sequence of prostate specific membrane antigen (PSMA), full-length, on the cell surface (human) (Q04609 whole entry): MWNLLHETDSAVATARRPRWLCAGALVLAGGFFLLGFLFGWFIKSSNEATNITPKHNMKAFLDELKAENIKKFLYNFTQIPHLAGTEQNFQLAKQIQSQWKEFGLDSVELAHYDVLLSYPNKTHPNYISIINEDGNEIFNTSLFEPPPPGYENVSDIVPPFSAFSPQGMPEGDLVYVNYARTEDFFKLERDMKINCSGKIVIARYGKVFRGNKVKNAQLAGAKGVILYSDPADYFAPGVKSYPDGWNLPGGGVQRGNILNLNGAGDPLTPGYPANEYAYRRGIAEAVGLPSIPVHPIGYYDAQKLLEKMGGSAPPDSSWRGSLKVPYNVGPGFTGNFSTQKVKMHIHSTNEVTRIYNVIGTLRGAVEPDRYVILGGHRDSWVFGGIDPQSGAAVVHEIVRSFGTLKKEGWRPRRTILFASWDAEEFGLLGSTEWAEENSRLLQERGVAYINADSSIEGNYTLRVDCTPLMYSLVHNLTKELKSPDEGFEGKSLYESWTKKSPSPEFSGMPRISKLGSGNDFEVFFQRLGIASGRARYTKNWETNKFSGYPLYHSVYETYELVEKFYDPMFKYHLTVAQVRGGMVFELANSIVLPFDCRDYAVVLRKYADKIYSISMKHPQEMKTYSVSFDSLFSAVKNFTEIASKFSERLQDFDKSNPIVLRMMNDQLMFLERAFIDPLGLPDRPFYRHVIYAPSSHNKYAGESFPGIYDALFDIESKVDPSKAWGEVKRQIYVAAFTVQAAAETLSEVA

For 111In radiolabeled mJ591 (antibody), the Immunoreactivity (%) is 56.7% in assay [1]; 58.5% and 54.9% in assay [2].

In assay [3], mAb J591 (antibody) yielded an LD50, immunotoxin cytotoxicity (Mab-Zap saporin) on C4-2 cells of 88.2 pM and an LD50, immunotoxin cytotoxicity (Mab-Zap saporin) on PSMA-3T3 cells of 89 pM.
